According to the supplement of paper PMC7877785:
± gives the uncertainty stated by the source.

Experiment: self-splicing fitness, log relative to wild type (ln ratio); higher = more splicing; Tetrahymena group I intron in knt gene, E. coli kanamycin selection, DiMSum; sequences stand for … in CUCUCU…GGAGGGAAAAGUUAUCAGGCAUGCACCUGGUAGCUAGUCUUUAAACCAAUAGAUUGCAUCGGUUUAAAAGGCAAGACCGUCAAAUUGCGGGAAAGGGGUCAACAGCCGUUCAGUACCAAGUCUCAGGGGAAACUUUGAGAUGGCCUUGCAAAGGGUAUGGUAAUAAGCUGACGGACAUGGUCCUAACCACGCAGCCAAGUCCUAAGUCAACAGAUCUUCUGUUGAUAUGGAUGCAGUUCACAGACUAAAUGUCGGUCGGGGAAGAUGUAUUCUUCUCAUAAGAUAUAGUCGGACCUCUCCUUAAUGGGAGCUAGCGGAUGAAGUGAUGCAACACUGGAGCCGCUGGGAACUAAUUUGUAUGCGAAAGUAUAUUGAUUAGUUUUGGAGUACUCGUGGUCG
Procedure, shortened: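 Six replicate transformations of E. coli BL21(DE3) with a pET-22b(+) library were grown overnight at 37°C or 30°C. The library randomised all eight P1ex-region intron nucleotides, the intron lying in the knt kanamycin-resistance gene, and plates were LB agar with or without 25 μg/mL kanamycin plus 100 μg/mL carbenicillin, 50 μM IPTG and 0.2% rhamnose. Pooled colonies were amplicon-sequenced on an Illumina HiSeq 2500, and fitness is the DiMSum error-weighted combination of wild-type-normalised replicate fold changes, kanamycin versus none.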

Row | Sequence | self-splicing fitness (ln) (30 °C) | self-splicing fitness (ln) (37 °C)
1 | CCUUAGCAAUAUUACGAUGC | -4.15 ± 0.27 | -2.62 ± 0.17
2 | UAUAAGCAAUAUUACGAGUC | -1.69 ± 0.32 | 
3 | GUUAAGCAAUAUUACGAAUA | -1.19 ± 0.25 | -0.46 ± 0.32
4 | GGCCAGCAAUAUUACGGGAU | -1.73 ± 0.097 | -0.354 ± 0.1
5 | UAGAAGCAAUAUUACGUGUC | -3.27 ± 0.22 | -2.31 ± 0.23
6 | AGAAAGCAAUAUUACGUAUG | -2.58 ± 0.12 | -3.05 ± 0.19
7 | AGUUAGCAAUAUUACGUCAC |  | -0.825 ± 0.31
8 | GCCGAGCAAUAUUACGUUUG | -3.75 ± 0.2 | -1.54 ± 0.19
9 | CCCUAGCAAUAUUACGACUG | -4.39 ± 0.36 | -2.92 ± 0.27
10 | AUAGAGCAAUAUUACGAUCU | -0.131 ± 0.12 | -0.042 ± 0.17
11 | GUUUAGCAAUAUUACGGUCG | -1.35 ± 0.076 | -0.636 ± 0.099
12 | UUAUAGCAAUAUUACGAGGC | -3.95 ± 0.37 | -3.71 ± 0.42
13 | AGGCAGCAAUAUUACGUUUU | -1.59 ± 0.065 | -0.435 ± 0.079
14 | CUAGAGCAAUAUUACGAGUA | -3.71 ± 0.23 | -1.17 ± 0.17
15 | CGAAAGCAAUAUUACGAAUU | -4.27 ± 0.29 | -1.55 ± 0.14
16 | GCGUAGCAAUAUUACGAAUG | -1.32 ± 0.11 | -0.603 ± 0.13
17 | UAUGAGCAAUAUUACGACGA | -1.87 ± 0.36 | -1.62 ± 0.34
18 | ACUUAGCAAUAUUACGGUUC | -2.73 ± 0.16 | -3.35 ± 0.26
19 | UGGCAGCAAUAUUACGACAU | -1.746 ± 0.014 | -0.812 ± 0.033
20 | ACGAAGCAAUAUUACGAUAU | -3.39 ± 0.14 | -2.03 ± 0.14

Row | Sequence | self-splicing fitness (ln) (30 °C) | self-splicing fitness (ln) (37 °C)
21 | UCAGAGCAAUAUUACGGCAC |  | -2.09 ± 0.33
22 | UCAUAGCAAUAUUACGUUCC |  | -1.99 ± 0.29
23 | AGUUAGCAAUAUUACGGAAC |  | -2.72 ± 0.38
24 | UCGAAGCAAUAUUACGGUAC | -4.43 ± 0.39 | 
25 | CCCAAGCAAUAUUACGUCUG | -3.87 ± 0.19 | -2.18 ± 0.21
26 | CUAGAGCAAUAUUACGACCU | -3.67 ± 0.27 | -2.99 ± 0.33
27 | GGAUAGCAAUAUUACGUUUU | -1.33 ± 0.11 | -1.62 ± 0.14
28 | ACCGAGCAAUAUUACGAAAG | -3.42 ± 0.37 | -1.68 ± 0.17
29 | GCGCAGCAAUAUUACGCGUU | -2.99 ± 0.14 | -2.06 ± 0.15
30 | GUCGAGCAAUAUUACGCGGC | -3.88 ± 0.47 | -2.25 ± 0.39
31 | CCGGAGCAAUAUUACGUAUA | -3.21 ± 0.23 | -2.49 ± 0.36
32 | UGAUAGCAAUAUUACGAACG | -0.462 ± 0.15 | -0.0562 ± 0.2
33 | UCCAAGCAAUAUUACGGCUC | -3.84 ± 0.37 | 
34 | AUGAAGCAAUAUUACGGGGC | -4.78 ± 0.26 | -2.48 ± 0.2
35 | GACUAGCAAUAUUACGUAGU | -2.84 ± 0.18 | -2.28 ± 0.27
36 | GCGGAGCAAUAUUACGCCUU |  | -2.17 ± 0.49
37 | UAGCAGCAAUAUUACGCGGA | -0.908 ± 0.079 | -0.843 ± 0.082
38 | CAUCAGCAAUAUUACGAUUC | -1.62 ± 0.071 | -0.269 ± 0.073
39 | GUACAGCAAUAUUACGGCGC | -0.365 ± 0.082 | -0.0882 ± 0.095
40 | UACCAGCAAUAUUACGUGCG | -0.811 ± 0.044 | -0.367 ± 0.061
